The record followed here is publication PMC10991935.

pKd: −log10 of the molar value.

One series concerns PsPIWI-RE (Pseudomonas stutzeri DSM 4166). Nature of the series: fluorescence polarization. As to conditions: 5' phosphate; FP: 20 mM Tris-HCl pH 7.5, 250 mM NaCl, 5 mM MgCl2, 5 nM oligo, 37 C, 30 min; EMSA: 20 mM Tris-HCl pH 8.0, 150 mM NaCl, 2 mM DTT, 5 mM MgCl2, 1 uM oligo, 1-3 uM. A general note: In fluorescence polarisation assays a small probe gives low polarisation when free and higher when bound to something large.
Usually pKd stands for −log10 of the Kd, conventionally taken in molar units. With “UGAGGUAGUAGGUUGUAUAGU [5'P-RNA (5'U) 21-nt guide]”, the pKd was 7.19.
On to “TGAGGTAGTAGGTTGTATAGT [5'P-DNA (5'T) 21-nt guide]”, for which the pKd is 7.61.

Still in this series, the particulars now being: FP: 20 mM Tris-HCl pH 7.5, 250 mM NaCl, 5 mM MgCl2, 5 nM oligo, 37 C, 30 min; EMSA: 20 mM Tris-HCl pH 8.0, 150 mM NaCl, 2 mM DTT, 5 mM MgCl2, 1 uM oligo, 1-3 uM.
As for “TGAGGTAGTAGGTTGTATAGT [5'OH-DNA (5'T) 21-nt guide]”, the pKd was 7.71.
Sequence “CGAGGUAGUAGGUUGUAUAGU [5'OH-RNA (5'C) 21-nt guide]” gave a pKd of 6.82.
On the same count and under the same terms, the figure for “UGAGGUAGUAGGUUGUAUAGU [5'OH-RNA (5'U) 21-nt guide]” is 7.06; for “GGAGGUAGUAGGUUGUAUAGU [5'OH-RNA (5'G) 21-nt guide]” it is 7.06; for “AGAGGUAGUAGGUUGUAUAGU [5'OH-RNA (5'A) 21-nt guide]” it is 7.05.
